In publication PMC6049929, “Exchange of functional domains between a bacterial conjugative relaxase and the integrase of the human adeno-associated virus”:

What was measured:
[1] = molecular target: TrwC/Rep chimera (untagged) (plasmid R388 / human adeno-associated virus (AAV)) (UniProt P03132); experiment: fluorescence polarization; settings: EMSA: 10 mM Hepes-KOH pH 7.5, 10 mM KCl, 3.3 mM MgCl2, 1 mM EDTA, 2.5 mM DTT, 400 ng poly(dI-dC), 15 mM (Rep68) or 75 mM (chimera) NaCl, room temperature 20 min
[2] = molecular target: TrwC/Rep chimeric protein (N-terminal relaxase domain of R388 TrwC fused to the C-terminal domain of AAV2 Rep68) (bacterial plasmid R388 (E. coli) | adeno-associated virus 2 (AAV2)) (UniProt Q47673); experiment: AUC; sedimentation velocity, 20°C, 492 nm; 3.32 μM TrwC/Rep chimera with 0.83 μM 5' 6-carboxyfluorescein oriTw(34-mer) ssDNA (protein/DNA 4:1); oligomer size from the theoretical S of a globular complex
[3] = molecular target: His-TrwC/Rep chimera (plasmid R388 / human adeno-associated virus (AAV)) (UniProt P03132); experiment: EMSA; settings: EMSA: 10 mM Hepes-KOH pH 7.5, 10 mM KCl, 3.3 mM MgCl2, 1 mM EDTA, 2.5 mM DTT, 400 ng poly(dI-dC), 15 mM (Rep68) or 75 mM (chimera) NaCl, room temperature 20 min
[4] = molecular target: His-TrwC/Rep chimera (plasmid R388 / human adeno-associated virus (AAV)) (UniProt P03132); experiment: competition; settings: EMSA: 10 mM Hepes-KOH pH 7.5, 10 mM KCl, 3.3 mM MgCl2, 1 mM EDTA, 2.5 mM DTT, 400 ng poly(dI-dC), 15 mM (Rep68) or 75 mM (chimera) NaCl, room temperature 20 min
His-Rep68 = His-Rep68 (human adeno-associated virus (AAV), UniProt P03132 1-536); experiment: EMSA; 100 ng protein, 15 mM NaCl; EMSA: 10 mM Hepes-KOH pH 7.5, 10 mM KCl, 3.3 mM MgCl2, 1 mM EDTA, 2.5 mM DTT, 400 ng poly(dI-dC), 15 mM (Rep68) or 75 mM (chimera) NaCl, room temperature 20 min; FP: 25 mM HEPES pH 7.0, 200 mM NaCl, 25 C; AUC: 25 mM Tris-HCl pH 7.9, 200 mM NaCl, 1 mM TCEP, 20 C; settings: protein: recombinant, tags: N-terminal His (pET15b, PreScission site)

## AGCGCACCGAAAGGTGCGTATTGTCTATAGCCCA [oriTw 34-mer (oriTw(25+8) plus 5' dA)]
[1]
  Kd: 16 nM

## TrwC/Rep chimeric protein (N-terminal relaxase domain of R388 TrwC fused to the C-terminal domain of AAV2 Rep68) (from UniProt Q47673 2-293; P03132 209-536) (enzyme)
[2]
  stoichiometry N: > 6 subunits

## GCGCACCGAAAGGTGCGTATTGTCTATAGCCCA [oriTw(25+8)]
[3]
  binding signal: 49 % shifted
[4]
  binding signal: 24 % shifted

B1: AAV ori RBSmut (dsDNA)
DNA 1: CTAGATGATGGAGTTGGCCACTCCCTCTCTCCTCCCTCCCTCCCTCACTG
DNA 2: TCGACAGTGAGGGAGGGAGGGAG
His-Rep68; label: 32P 5' end, top strand
  binding result: no binding

## GCGCACCGAAAGGTGCGTATTGTCTATAGCCCA (ssDNA) [oriTw(25+8)]
His-Rep68; label: 32P, inverted repeat IR2
  binding result: no binding
